# Laboratory results: article PMC7515726
# Experiments:
# Experiment in all cases: affinity purification with mass spectrometry
# [1] = target: Nuc3, disk patch 3 mutant nucleosome (hH3.2x10, hH4x24, hH2B.Cx9), biotinylated 185 bp 601 DNA (human) (UniProt P20671)
# [2] = target: Nuc1, acidic patch mutant nucleosome (hH2A.Dx10), biotinylated 185 bp 601 DNA (human) (UniProt P62807)
# [3] = target: Nuc2, disk patch 2 mutant nucleosome (hH2A.Dx2, hH2B.Cx8), biotinylated 185 bp 601 DNA (human) (UniProt Q71DI3)
# RNF2 (RING finger protein 2), sequence (Q9CQJ4 whole entry): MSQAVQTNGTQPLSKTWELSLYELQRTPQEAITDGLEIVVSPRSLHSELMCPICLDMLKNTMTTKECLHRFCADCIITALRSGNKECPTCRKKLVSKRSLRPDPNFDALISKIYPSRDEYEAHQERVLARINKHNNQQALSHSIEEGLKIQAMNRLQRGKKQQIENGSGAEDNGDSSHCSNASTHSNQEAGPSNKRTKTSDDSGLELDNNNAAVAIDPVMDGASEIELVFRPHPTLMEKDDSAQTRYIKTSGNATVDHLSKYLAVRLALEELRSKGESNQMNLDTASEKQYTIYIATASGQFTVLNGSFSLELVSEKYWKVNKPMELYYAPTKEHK
# RUVBL1, sequence (P60122 whole entry): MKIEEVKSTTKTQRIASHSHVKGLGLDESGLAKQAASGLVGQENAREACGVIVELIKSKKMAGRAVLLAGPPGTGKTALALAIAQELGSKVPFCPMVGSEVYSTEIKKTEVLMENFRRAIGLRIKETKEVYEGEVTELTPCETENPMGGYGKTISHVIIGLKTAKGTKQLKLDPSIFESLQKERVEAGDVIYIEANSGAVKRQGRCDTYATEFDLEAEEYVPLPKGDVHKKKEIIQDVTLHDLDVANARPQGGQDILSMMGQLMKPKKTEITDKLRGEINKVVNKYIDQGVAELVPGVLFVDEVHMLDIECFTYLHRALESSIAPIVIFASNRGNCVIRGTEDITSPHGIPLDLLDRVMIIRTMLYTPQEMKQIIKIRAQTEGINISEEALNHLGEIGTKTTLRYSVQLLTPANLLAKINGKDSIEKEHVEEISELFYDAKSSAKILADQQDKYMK
# RUVBL2, sequence (Q9WTM5 whole entry): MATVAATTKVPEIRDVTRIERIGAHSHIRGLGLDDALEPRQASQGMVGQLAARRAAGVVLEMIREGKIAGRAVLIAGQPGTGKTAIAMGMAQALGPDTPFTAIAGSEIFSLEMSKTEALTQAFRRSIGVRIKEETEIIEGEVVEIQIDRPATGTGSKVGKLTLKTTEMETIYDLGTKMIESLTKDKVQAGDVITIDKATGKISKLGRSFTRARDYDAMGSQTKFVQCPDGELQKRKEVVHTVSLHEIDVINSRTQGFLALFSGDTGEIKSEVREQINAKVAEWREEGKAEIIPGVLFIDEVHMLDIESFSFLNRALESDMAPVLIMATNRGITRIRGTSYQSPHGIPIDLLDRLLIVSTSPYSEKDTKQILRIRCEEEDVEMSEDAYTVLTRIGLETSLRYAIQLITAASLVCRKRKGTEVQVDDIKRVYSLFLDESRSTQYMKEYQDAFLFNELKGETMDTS
fold decrease in binding vs wild-type nucleosome [1] [fold],fold decrease in binding vs wild-type nucleosome [2] [fold],fold decrease in binding vs wild-type nucleosome [3] [fold],Substance
1.33,–,–,RUVBL1 (from UniProt P60122 1-456) (natural protein)
–,1.8,–,methylcytosine dioxygenase Tet1 (from UniProt Q3URK3 1-2039) (enzyme)
–,1.72,–,DNMT1 DNA methyltransferase (from UniProt P13864 1-1620) (enzyme)
–,1.5,–,RNF2 (RING finger protein 2) (from UniProt Q9CQJ4 1-336) (natural protein)
1.38,–,–,RUVBL2 (from UniProt Q9WTM5 1-463) (natural protein)
–,27,13,HMGN2 (high mobility group nucleosome-binding domain-containing protein 2) (from UniProt P09602 1-90) (natural protein)
